Like-named read-outs stand apart in the source and are kept apart here.
What was measured:
[1] = target: S100A4 (wild type, full-length) (UniProt P26447); experiment: fluorescence polarisation; as a1 but without Ca2+: EGTA added to 1 mM at the end of the titration
[2] = target: S100A4 (wild type, full-length) (UniProt P26447); experiment: stopped-flow fluorescence; 0.1 μM F-M16^N mixed with S100A4, fluorescein emission intensity, with Ca2+; kobs against [S100A4]; dissociation also by displacement with excess M32
[3] = target: S100A4 (wild type, full-length) (UniProt P26447); experiment: as above; remark: listed apart in the source
[4] = target: S100A4 (wild type, full-length) (UniProt P26447); experiment: fluorescence polarisation; fluorescein anisotropy; 0.1 μM F-M16^N titrated with S100A4; 20 mM NaCl, 10 mM Hepes, 1 mM Mg2+, 100 μM Ca2+, pH 7.5, 20 °C; apparent; 1:1 binding per S100A4 monomer assumed
[5] = target: S100A4 (wild type, full-length) (UniProt P26447); experiment: fluorescence polarisation + other: stopped-flow fluorescence; K2 with Ca2+: anisotropy value corrected for the 35% quench of fluorescein, identical with k-2/k2 of the stopped-flow records; per S100A4 monomer
[6] = target: S100A4 (wild type, full-length) (UniProt P26447); experiment: fluorescence polarisation; competition: displacement of F-M16^N (5 μM) from S100A4 (5 μM) by increasing M32 or M16^N, with Ca2+; fit to a competitive single-site model with Kd of F-M16^N fixed at 2 μM

Chain of S100A4 (wild type, full-length) (P26447 whole entry): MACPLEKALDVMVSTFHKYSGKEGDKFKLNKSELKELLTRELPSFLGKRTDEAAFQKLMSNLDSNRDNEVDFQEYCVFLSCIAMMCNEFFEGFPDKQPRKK

Substance | Kd [1] | koff [2] | kon [2] | koff [3] | Kd [4] | Kd [5] | Kd [6]
F-M16^N, fluorescein-labelled M16^N myosin peptide (NM-MHC IIA D1908-R1923) (from UniProt P35579-1 1908-1923) | > 300 µM | 6.2 s⁻¹ | 4.9e+06 M⁻¹ s⁻¹ | 7.7 s⁻¹ | 2 µM | 1.3 µM | –
M16^N myosin peptide (NM-MHC IIA D1908-R1923) (from UniProt P35579-1 1908-1923) | – | – | – | – | – | – | > 100 µM
